Test results published in the domain aggregation screens of Martell et al. (2025).

Test: soluble fraction after stress (log2 fold change); higher = more stays soluble; pooled small domains, quantitative proteomics
Conditions: stress: pH 4
Method in brief: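 Values are on a log2 scale, where higher means more of the domain stayed soluble after pH 4 stress. They are fold changes in the soluble amount of each domain from pooled custom libraries, measured by high-throughput quantitative proteomics. The fold change is taken to reflect aggregation propensity.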

First: HMLKGTVKWFNESKGFGFIEQEEGKDVFVHYSAITGSGFKTLNEGDKVQFEIVDGPKGPAAANVSK
Second: HMTRAEVQALLEKQAKDFEVEVVHRGWKKTVQTPEFAGWYSQQPAEIKALAESDDPAVAIRMLDLFSGTK
The “soluble fraction (log2)” value of the first is lower: -0.927 for the first, -0.644 for the second.

First: HMGGRRHANMSREEEAAFLAPFFEKAAQGGILVVREIRQALDAHLGRTVPLSTVYNLLHRHNWRKL
Second: HMKKVRIPDDPEEAYRKALKTAMNIVGYKDNTEFTLREKLSERGYSGETVDAVAEFMKSKGYV
The “soluble fraction (log2)” value of the first is higher: 0.379 for the first, 0.00228 for the second.

First: HMDLPDFTSRERDILARVVQGDSNERIAASLGVSVSTVKTHIGNILRKTGQTNRVRLIVWATRHL
Second: HMGEKTVPNVIGQKLATAKQLLEKEGLTVGSTSYNKNQADKDTVLSTDPAPGSHLSEGAKVNLTLSSGA
The “soluble fraction (log2)” value of the first is lower: -0.37 for the first, 0.0205 for the second.

Going from “HMRVNINVSENILDWVMKRVNPSVLSSKQGELLYAWKEGRKVPTYNQIEKMSKVTGIPLGYFFLEKPPVE” to “HMAALTADEAKQIALKHAGVAESDVQRLKVEQDRDDGRLLYEVEWDVGRTEYSYEIDANTGDILNYEKDV”, the “soluble fraction (log2)” value falls from 0.411 to -0.361.

“HMSENKIMEIVQDLAREKSVILISHRLANVTAADKILYMEQGKIAESGTHEQLMAQNKAYAALFNKQQEL” and “HMSMNGNMIHATVIWKGRYFLVKMFFPQLTKPKRAEVQAQIEKAYPGSRVASYHITDYKPGEQFLHV” are within 0.2 log units of each other in “soluble fraction (log2)” value: -0.0418 for the first, -0.156 for the second.

“HMTEISGIEKFLASGAINGIGPAMAKKIVAEFGEKTLEIIAKSPNELLKVPGIGKKTAEKISTSYLEQ” and “HMTSKTLSAVEGEGLRLDKFLSNQLPELSRTKIQKMINDGLVFVNNTEAKASLILDGSEFIAYTVPD” are within 0.2 log units of each other in “soluble fraction (log2)” value: 0.0637 for the first, -0.0789 for the second.

Compared with “HMRGADNAASILKEVGPHPEDGKPITVRSGRYGPYVKHGTTNATLPKDIKPEEITLDEAIALINERVAKG”, “HMGAKEHLAGETLRMAVELLSEKQGIPAEQALIRFISSPVYDALYDLDTGMWTQGPTRLLEAFEALE” is lower in “soluble fraction (log2)” value: -0.143 for the first, -1.69 for the second.

“HMNGVSNETLIQKSALYEELNQPDLALKMINTALKKDSVNIEILHRLVTLLMSQEKNEEAILYNQKIIDH” and “HMSHDTLVYRLAQMLVKLNQGEKLDPQQLAEEFGVNLRTIQRDLNVRFAYLQLEKTDGRYHLDPTFL” are within 0.2 log units of each other in “soluble fraction (log2)” value: -0.0993 for the first, -0.241 for the second.

Compared with “HMKTTKRERARAKLIQLLENEDRPAKEIYAGLGDIGVGSRTVEKVKKELQVTTYRSGGSWYWSLPKP”, “HMDAPRFAAGDAVRVAGLVSKPQHNGRAGSVLSYDPVSLRYIVKVDGEDEPLKLKPENVLMPA” is higher in “soluble fraction (log2)” value: -0.147 for the first, 0.0764 for the second.

Going from “HMVEPIEESISQLSLLLQSLYEDGKSEVSFEELIRSDRSRVSLFLALLFMAQRGNVYLEQEELFGDLRVKN” to “HMSARKVTVALHTRDHADRLRRLLKHEGVSADLVAARLSHKLTDHPIEVRVNEDDIPAVLRIIENIEIF”, the “soluble fraction (log2)” value falls from -0.4 to -0.707.

Compared with “HMRGWGTVKRRTPKSGRYRASYIGPDGKRYAADHTYAAKVDADAWLSSERALITAGVWTPPTDRVT”, “HMPMNISDIIKQAREELGMTQEDLAERLEVSRQAVSKWELGASVPSPENLRLLEELLGVELPAP” is lower in “soluble fraction (log2)” value: -0.0591 for the first, -0.635 for the second.

Compared with “HMQPFTELTPREREILGHLAEGQSNKVIARHLDISDGTVKLHVKAILRKLGVHSRVEAAVMAVEHGIR”, “HMTEKIVFNIDGQTGRIDKILADFMTGTSRSQIQAWVKDGNLMVNDKAVKSNYKVQDGDLLELTIPEPEQ” is lower in “soluble fraction (log2)” value: 0.4 for the first, -0.378 for the second.

Going from “HMNMDLGHSISKLRTDANLTQEKFAQILNVSRQTVQKWEYGEALPDIHNIIKIAKFFNISLDALVLRS” to “HMGASYSQFLDQVDSGNVQKVAFGGDMRGGTSQLTYTTRGGQSSTITAPFDRDLINVLRTKNVEIVQEEP”, the “soluble fraction (log2)” value rises from -0.222 to 0.0587.

Compared with “HMFWEGYLAARREQFLKDQQVLLGNEFRSNPDFWLEVASKEWAVVEERLSTGADVSEEVQETMGLDF”, “HMDIYLTAFKTTSNQVTLNGIARSDLIISEFMRDIRDAKLFGEPVLQVIQNKNLNNVQARVFELVVPL” is higher in “soluble fraction (log2)” value: -1.5 for the first, -0.399 for the second.

Going from “HMESWEDSNIANEFKSTIKIAEKRLAEGGDHPELLEKLEALKQAIINENQTEASKLDDQVNDILFDMDD” to “HMEEVYVPDIRDKSISDAKKILSQMGLKYRIEGEGYDDSTVIKDQTPKPGALLAKDSVVIAYINE”, the “soluble fraction (log2)” value rises from -0.558 to -0.0728.

Going from “HMIVVMQPGATKEQVQAVIDRVAEFGFQTKLAPGAERMVIGVVGSPLPDTLKEALERLPGVEEVIRVSKR” to “HMIEYYDDEELDVFKGRQSDNYTNKEIEQFAEVLHTMRQDEVKGWNRSLILRSINLPDSLKDEVIMLI”, the “soluble fraction (log2)” value falls from -0.0989 to -2.53.

First: HMYELSDTEWKIIEQVGLGASNKEIAASLHFSEGTIRNYLSVILDKLSLRDRTQLAILYVKMN
Second: HMEEEPALLRDLLAKTLEFGLIPQLSHHPALADRTQQLASAVRAAGSASALRNAAASLKSLWIDVDQ
The “soluble fraction (log2)” value of the first is higher: -0.122 for the first, -0.617 for the second.

Going from “HMIEQIELEARVPDELGGQRLDQVAAQMFDDFSRSRLTGWIRDGSLTADGQQLRPRDIVYGGTLLQLKAEQ” to “HMEVSTRQVRAALRDIIEAEDKKRPLSDEAITARLREQGLPVARRTVAKYREQMGILAARLRK”, the “soluble fraction (log2)” value rises from -0.151 to 0.0717.

Going from “HMQDFEEILKNAKIEDFKHTQTGEDLKVLKIEDKIEDFKGFNAYLVKNQIAYYSKFARGFVVKNIEKLQGV” to “HMTQHDIVPLMLKMVDVLTQFVELDIPFLQQERQTRLAALNAMMGRADVSLAEKYRRIMEAYQVETEYG”, the “soluble fraction (log2)” value falls from 0.155 to -0.254.

First: HMVSAMLLHKKEILNLLAEEPEALHFASLLRAFGGRHIKNELKQIVDDLVRSGEILRLRGNRYTLPGADN
Second: HMKPDMAVIVGSRTLTFATTTDRQILVLRTDGTMVNRLSMKAGETRTITLPAGVYIVNGKKIIV
The “soluble fraction (log2)” value of the first is lower: -0.149 for the first, 0.22 for the second.

For “HMKEEVMVPNVVGKELSAALLEMQVKELYPKLQLKYSNFVDDKGTVLEQSPPAGSIVKAGRRINLVVSRGA”, the “soluble fraction (log2)” value was 0.0708.
